The values that follow are results of earlier work, collected in PMC4740388.

Values joined by “and” are separate entries in the source; they are usually repeats but may differ in a detail not shown here. Equal entries are not always repeated. Where two headings read alike, the source gives them in different places.

The target of data set [1] is VEGFR1 ectodomain (Homo sapiens) (UniProt P17948).
Data set [2] concerns the target VEGFR2 ectodomain (Homo sapiens) (UniProt P35968).
Data set [3] addresses Nucleolin (Homo sapiens) (UniProt P19338).
For data set [4], the target named is Integrin α5β1 (Homo sapiens) (UniProt P08648).
Data set [5] has as its target Integrin αvβ3 (Homo sapiens) (UniProt P06756).
For data set [6] the target is unchanged. This is another data set of the same source.

Chain of Endostatin endostatin (P39060 1569-1754): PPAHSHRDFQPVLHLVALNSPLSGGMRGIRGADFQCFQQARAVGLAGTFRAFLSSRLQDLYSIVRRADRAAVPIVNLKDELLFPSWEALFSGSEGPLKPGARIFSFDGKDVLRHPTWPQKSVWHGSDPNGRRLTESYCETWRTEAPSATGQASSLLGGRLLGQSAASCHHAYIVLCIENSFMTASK
Chain of Integrin αvβ3 (Homo sapiens) (P06756 31-992, chain 1 of 2): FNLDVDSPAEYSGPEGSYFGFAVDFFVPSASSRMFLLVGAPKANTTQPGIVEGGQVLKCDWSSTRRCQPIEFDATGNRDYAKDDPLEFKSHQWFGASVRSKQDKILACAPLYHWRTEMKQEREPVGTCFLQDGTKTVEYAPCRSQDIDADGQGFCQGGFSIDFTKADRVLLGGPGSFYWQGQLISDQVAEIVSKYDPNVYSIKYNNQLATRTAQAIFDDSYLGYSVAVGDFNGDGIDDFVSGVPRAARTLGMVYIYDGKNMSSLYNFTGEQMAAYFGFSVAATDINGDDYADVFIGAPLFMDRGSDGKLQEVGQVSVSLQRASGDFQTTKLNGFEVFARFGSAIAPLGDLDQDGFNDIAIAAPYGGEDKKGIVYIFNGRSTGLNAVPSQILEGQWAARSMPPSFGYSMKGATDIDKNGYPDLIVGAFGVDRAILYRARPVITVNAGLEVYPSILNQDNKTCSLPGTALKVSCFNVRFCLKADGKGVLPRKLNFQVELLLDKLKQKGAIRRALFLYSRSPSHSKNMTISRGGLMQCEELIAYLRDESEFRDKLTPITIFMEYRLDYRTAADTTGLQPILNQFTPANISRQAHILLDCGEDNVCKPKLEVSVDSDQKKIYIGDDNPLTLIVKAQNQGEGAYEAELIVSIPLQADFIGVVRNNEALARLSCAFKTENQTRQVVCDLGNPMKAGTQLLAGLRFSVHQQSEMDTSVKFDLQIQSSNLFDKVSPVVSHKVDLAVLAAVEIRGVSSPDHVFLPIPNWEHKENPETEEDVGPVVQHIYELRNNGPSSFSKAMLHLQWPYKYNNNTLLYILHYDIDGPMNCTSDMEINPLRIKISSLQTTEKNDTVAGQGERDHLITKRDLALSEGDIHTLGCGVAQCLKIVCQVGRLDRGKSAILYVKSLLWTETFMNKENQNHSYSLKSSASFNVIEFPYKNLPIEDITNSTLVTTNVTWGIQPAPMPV
Chain of Integrin αvβ3 (Homo sapiens) (P05106 27-718, chain 2 of 2, further chain): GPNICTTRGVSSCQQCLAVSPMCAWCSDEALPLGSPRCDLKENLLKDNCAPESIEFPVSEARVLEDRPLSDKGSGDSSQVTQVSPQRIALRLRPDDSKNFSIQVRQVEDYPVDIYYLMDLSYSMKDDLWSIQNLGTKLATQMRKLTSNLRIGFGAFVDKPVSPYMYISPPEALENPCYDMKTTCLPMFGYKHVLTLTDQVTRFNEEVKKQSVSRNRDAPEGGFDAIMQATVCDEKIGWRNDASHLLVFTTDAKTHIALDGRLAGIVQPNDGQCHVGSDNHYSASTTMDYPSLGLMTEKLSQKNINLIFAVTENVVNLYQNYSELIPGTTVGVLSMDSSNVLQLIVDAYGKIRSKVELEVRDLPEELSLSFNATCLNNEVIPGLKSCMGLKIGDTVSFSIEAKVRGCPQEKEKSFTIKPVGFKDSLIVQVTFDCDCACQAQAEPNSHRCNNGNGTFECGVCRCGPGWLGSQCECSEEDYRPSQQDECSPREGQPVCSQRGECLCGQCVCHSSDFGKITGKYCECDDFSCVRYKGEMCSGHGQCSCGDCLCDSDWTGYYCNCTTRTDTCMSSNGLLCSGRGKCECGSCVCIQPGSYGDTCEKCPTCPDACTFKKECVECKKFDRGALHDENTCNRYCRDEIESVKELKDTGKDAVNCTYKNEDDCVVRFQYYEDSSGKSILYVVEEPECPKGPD
Chain of Integrin α5β1 (Homo sapiens) (P08648 42-995, chain 1 of 2): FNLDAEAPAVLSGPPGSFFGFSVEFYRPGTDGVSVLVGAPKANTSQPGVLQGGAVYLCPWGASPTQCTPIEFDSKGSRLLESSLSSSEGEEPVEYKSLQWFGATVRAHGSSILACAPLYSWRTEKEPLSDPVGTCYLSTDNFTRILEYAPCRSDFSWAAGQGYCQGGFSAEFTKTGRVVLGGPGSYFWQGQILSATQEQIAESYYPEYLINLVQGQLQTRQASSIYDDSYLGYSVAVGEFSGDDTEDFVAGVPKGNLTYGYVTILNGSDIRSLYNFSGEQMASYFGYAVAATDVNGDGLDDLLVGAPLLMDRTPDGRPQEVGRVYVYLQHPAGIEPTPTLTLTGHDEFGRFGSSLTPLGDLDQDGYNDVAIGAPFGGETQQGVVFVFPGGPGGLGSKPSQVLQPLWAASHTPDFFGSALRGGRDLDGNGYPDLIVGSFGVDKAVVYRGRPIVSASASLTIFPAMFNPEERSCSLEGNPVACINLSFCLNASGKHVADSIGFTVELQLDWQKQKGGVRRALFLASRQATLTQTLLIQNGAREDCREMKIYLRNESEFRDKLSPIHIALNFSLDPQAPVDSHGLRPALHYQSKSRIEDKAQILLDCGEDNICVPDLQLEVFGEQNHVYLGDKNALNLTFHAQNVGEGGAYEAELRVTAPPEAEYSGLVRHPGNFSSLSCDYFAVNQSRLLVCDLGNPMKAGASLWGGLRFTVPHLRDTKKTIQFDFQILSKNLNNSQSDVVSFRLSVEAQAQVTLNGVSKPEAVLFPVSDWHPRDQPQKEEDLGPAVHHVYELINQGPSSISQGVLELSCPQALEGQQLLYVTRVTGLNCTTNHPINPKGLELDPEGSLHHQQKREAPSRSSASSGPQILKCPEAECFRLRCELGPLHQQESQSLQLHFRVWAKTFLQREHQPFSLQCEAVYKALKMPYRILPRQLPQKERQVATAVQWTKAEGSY
Chain of Integrin α5β1 (Homo sapiens) (P05556 21-728, chain 2 of 2, further chain): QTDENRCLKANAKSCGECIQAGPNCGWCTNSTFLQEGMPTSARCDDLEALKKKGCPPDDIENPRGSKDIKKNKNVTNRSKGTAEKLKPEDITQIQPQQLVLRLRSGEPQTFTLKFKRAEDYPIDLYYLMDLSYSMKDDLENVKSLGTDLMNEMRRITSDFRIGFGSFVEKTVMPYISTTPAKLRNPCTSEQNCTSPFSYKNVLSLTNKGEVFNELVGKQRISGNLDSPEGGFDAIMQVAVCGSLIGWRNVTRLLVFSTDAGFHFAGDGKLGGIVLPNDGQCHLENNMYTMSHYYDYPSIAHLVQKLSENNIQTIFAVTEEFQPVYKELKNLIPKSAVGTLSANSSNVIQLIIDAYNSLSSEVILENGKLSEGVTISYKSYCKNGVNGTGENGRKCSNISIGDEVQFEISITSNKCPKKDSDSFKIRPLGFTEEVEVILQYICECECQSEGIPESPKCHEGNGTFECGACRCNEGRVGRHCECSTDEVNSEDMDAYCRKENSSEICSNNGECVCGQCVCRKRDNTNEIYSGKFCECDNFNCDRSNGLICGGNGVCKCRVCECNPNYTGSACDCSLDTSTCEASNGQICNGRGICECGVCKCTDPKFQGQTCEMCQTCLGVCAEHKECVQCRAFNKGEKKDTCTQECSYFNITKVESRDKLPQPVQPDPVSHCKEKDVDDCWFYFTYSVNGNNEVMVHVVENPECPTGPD
Chain of Endorepellin endorepellin (P98160 3684-4391): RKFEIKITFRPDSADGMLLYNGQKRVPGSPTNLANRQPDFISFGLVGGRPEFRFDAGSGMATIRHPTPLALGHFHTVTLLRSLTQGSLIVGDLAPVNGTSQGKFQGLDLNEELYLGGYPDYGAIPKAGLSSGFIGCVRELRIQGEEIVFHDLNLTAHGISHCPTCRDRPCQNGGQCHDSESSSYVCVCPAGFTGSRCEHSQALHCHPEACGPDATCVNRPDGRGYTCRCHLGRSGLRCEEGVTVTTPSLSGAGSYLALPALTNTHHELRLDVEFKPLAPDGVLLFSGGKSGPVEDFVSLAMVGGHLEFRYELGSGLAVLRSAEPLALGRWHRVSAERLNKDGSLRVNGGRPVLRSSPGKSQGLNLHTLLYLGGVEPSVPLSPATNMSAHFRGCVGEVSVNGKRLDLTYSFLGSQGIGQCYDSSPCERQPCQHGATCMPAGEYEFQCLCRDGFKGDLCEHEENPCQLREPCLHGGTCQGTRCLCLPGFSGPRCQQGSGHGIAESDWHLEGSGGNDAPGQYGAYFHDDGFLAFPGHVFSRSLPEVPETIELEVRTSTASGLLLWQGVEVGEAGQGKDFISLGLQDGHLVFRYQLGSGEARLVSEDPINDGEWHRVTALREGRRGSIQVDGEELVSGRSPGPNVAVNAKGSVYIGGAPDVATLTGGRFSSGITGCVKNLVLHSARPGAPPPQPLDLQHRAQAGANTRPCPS
Chain of VEGFR1 ectodomain (Homo sapiens) (P17948 27-758): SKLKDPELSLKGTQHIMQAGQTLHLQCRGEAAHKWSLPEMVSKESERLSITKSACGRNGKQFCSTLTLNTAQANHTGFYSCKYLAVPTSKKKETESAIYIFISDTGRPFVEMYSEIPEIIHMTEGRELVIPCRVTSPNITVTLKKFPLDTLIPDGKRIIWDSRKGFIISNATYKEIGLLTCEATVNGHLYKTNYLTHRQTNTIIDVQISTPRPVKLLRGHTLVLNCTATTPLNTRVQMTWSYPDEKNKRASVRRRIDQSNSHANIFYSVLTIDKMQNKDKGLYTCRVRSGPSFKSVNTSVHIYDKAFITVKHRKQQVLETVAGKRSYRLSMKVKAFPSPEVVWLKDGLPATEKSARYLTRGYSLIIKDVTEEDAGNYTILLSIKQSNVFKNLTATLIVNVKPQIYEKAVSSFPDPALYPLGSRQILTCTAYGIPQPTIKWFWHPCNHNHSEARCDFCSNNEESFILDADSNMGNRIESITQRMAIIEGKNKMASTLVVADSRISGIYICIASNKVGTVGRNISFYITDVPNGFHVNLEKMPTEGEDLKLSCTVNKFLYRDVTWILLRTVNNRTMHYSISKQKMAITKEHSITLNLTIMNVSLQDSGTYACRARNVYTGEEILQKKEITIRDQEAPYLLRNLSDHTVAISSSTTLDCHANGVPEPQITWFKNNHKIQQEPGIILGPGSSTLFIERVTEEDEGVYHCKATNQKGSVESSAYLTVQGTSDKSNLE

A word on the Kd: it is the constant that tells how readily two partners part at equilibrium. As to “Endorepellin endorepellin (from UniProt P98160)”, the Kd in data set [1] is 0.001 µM; in data set [2] it was 0.0009 µM.

As for “Endostatin endostatin (from UniProt P39060)”, the Kd in data set [3] is 0.013 µM; in data set [4], 0.975 µM and 0.451 µM; in data set [5], 0.501 µM and 1.2 µM.

As for “Tetrastatin tetrastatin (from UniProt P53420)”, the Kd in data set [6] was 0.148 µM.
